Reference: publication PMC5179221 (2017)

Target: NCoR peptide (Homo sapiens, UniProt O75376)
Experiment: fluorescence polarization

NCoR peptide, sequence (O75376 whole entry): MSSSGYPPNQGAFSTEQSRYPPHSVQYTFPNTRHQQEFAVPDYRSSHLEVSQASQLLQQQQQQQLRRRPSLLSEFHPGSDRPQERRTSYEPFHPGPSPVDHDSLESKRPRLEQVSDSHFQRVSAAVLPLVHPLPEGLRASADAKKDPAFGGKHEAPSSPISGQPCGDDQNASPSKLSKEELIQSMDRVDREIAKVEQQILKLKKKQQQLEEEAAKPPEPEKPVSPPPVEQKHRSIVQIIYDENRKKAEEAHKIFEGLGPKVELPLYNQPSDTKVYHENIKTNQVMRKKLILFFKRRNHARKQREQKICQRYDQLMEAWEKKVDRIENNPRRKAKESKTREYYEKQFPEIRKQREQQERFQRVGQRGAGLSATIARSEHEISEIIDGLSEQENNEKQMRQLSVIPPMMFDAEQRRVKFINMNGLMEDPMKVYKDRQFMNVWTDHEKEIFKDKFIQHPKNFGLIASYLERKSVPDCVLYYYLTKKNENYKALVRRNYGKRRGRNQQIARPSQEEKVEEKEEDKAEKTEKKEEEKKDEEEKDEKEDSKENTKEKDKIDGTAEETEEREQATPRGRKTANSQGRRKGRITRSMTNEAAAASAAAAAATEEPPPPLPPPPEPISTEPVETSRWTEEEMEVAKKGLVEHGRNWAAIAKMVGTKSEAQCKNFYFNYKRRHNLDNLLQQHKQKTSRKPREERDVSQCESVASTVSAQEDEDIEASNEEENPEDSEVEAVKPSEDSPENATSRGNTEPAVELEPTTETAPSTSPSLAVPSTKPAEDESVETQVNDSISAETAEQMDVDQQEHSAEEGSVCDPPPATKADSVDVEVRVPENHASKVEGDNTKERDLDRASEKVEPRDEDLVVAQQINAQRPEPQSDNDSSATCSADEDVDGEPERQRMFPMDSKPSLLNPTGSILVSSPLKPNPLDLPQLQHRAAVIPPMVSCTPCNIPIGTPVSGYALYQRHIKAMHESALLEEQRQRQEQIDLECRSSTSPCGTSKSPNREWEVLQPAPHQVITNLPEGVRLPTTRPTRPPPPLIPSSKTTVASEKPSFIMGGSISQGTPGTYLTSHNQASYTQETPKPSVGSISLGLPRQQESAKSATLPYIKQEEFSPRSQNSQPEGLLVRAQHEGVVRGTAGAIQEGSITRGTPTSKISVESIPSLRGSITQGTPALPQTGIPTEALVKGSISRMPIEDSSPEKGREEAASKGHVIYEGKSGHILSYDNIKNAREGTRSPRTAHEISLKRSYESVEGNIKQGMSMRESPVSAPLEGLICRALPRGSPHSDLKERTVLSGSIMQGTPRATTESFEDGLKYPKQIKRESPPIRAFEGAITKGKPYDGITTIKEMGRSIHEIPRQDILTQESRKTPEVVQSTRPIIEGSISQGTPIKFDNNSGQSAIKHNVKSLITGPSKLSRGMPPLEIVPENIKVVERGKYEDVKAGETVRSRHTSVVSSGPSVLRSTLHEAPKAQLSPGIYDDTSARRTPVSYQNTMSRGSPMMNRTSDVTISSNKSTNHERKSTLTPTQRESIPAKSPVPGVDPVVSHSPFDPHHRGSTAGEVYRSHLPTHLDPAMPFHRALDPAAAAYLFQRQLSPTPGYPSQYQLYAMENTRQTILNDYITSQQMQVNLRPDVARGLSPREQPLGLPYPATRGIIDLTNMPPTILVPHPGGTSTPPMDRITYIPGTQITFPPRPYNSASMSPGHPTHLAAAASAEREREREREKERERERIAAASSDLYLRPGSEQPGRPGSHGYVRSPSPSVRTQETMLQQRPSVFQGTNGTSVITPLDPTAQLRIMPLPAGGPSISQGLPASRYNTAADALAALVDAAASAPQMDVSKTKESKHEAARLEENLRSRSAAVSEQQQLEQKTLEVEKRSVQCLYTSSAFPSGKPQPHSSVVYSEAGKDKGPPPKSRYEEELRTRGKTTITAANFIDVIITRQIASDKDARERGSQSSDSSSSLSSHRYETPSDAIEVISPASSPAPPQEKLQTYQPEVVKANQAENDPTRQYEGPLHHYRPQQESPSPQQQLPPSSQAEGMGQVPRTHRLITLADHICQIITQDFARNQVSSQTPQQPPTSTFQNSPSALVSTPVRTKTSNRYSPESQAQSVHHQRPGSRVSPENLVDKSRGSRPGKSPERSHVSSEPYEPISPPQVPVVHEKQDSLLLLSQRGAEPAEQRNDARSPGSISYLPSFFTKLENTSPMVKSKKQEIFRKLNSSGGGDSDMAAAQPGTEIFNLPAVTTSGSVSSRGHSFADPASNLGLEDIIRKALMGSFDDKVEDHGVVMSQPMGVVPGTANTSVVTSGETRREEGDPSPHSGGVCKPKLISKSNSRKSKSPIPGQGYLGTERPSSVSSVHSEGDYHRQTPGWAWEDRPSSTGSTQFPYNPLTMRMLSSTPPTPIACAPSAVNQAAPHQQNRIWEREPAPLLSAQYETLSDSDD

Kd: 1400 nM
B1: PPARγ LBD LBD (protein)
chain: DLRALAKHLYDSYIKSFPLTKAKARAILTGKTTDKSPFVIYDMNSLMMGEDKIKFKHITPLQEQSKEVAIRIFQGCQFRSVEAVQEITEYAKSIPGFVNLDLNDQVTLLKYGVHEIIYTMLASLMNKDGVLISEGQGFMTREFLKSLRKPFGDFMEPKFEFAVKFNALELDDSDLAIFIAVIILSGDRPGLLNVKPIEDIQDNLLQALELQLKLNHPESSQLFAKLLQKMTDLRQIVTEHVQLLQVIKKTETDMSLHPLLQEIYKD
